Measurements: the supplement of paper PMC12636428

System: Saccharomyces cerevisiae
Test: transcriptional activation domain activity (GFP:mCherry ratio, weighted mean of sorted bins, harmonized to initial dataset scale) (arbitrary fluorescence ratio units); higher = stronger transcriptional activation
Settings: beta-estradiol 1 µM; induction time 4 h
Protocol: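 53-aa protein tiles (fungal proteins plus yeast TF control tiles) fused C-terminally to a DBD-estrogen-binding domain-mCherry synthetic TF, integrated in S. cerevisiae (URA3 locus) with a GFP reporter. Cells were induced with 1 uM beta-estradiol for 4 h at 30 C, FACS-sorted into 8 bins by GFP:mCherry ratio and barcodes sequenced. Activity is the read-weighted mean bin fluorescence (GFP:mCherry), averaged over barcodes (median 12); tiles under 50 reads were discarded. New active-learning values were harmonized by linear fit onto the scale of the initial (Hummel et al.) dataset. The assay saturates at low and high signal.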

VAKCFEKVKALIGTFDLDVGRVLDVTLDVFASLLVKHHKFFIKLLRCSYWWPV
transcriptional activation domain activity: 83300

YLVRHRGEIFDNFQARKEQLLCPVYIRWLRLIWQILLSCCHVIFKSHPWMVFM
transcriptional activation domain activity: 57700

LCLPFFLSLLPFFQSWRYVNISLLLFFYSSSIFSPSFPFIYYFTVFFLSFLLL
transcriptional activation domain activity: 29900

MDEVGLSSMRYYHFSIFNVLIVFLLGTTFLNTIIDLVYTPTSILTLLANSLPQ
transcriptional activation domain activity: 51800

GGGTDPRHLHVVSVMLVKGVPFYGYHIGYSYFLKVSLVNPSRMFVALEQLRKP
transcriptional activation domain activity: 30000

VFYGSNYFFICAISYVKGLGFCISDSFRYSWMSISPYWMIFMVVCNILPAILI
transcriptional activation domain activity: 63900

MYYCLFFFFVSFCISLCFFYYYSQLCFFSTSFFAVSRGFFFISLSFLVCVWTI
transcriptional activation domain activity: 57300

MEGYELRMVALLLFSLLFVVAKKRGVHTNPSRLAVFVVLLRLCFVFCCLLFLA
transcriptional activation domain activity: 85000

TREMREKVEREREGRRRAREEKEKRGGGGGGGKGKKGRGGKGKGKAVPGAGAG
transcriptional activation domain activity: 49400

MHSDMYLHPTLLSFLSVQFSMGFLFFLCRRYLYFSEWLLVVLCVFVSRFIGFI
transcriptional activation domain activity: 38400

MSWPFPFFFLLFRLFLSLFRGGCFWVQIFVFIPEYLVYSILFSFFFTVIYLFV
transcriptional activation domain activity: 40400

PDYLFSRLFVCAFISLFVSLSFLQLGNGLRDLQFRVFSIFWVSILPAIIMSQI
transcriptional activation domain activity: 52200

DDTGEEEQPPPASNSSAGVATSTTVVPQQLPARYRLRAFISHKGPSVHSGHYV
transcriptional activation domain activity: 29800

MQDGEHEQRLNGRKLALEAENYIIISTRLQKPCIGVVQVLLLLIIMRTISASD
transcriptional activation domain activity: 79600

SDGEESDAGAKERKRKKKRRAKDSESESSDEEEKRKKTKRSKSKSKRRSPSPS
transcriptional activation domain activity: 25700

SKVYLLKHFEGYIMGKLYGDYEYTFLDLQRTKGMHFVQKYLRMKHVIVFKLSH
transcriptional activation domain activity: 58700

MVIMYKFVFYTGFDRFVFFFWDFFFFFFFFCMLSMGYFSYFIFILSLLESVLV
transcriptional activation domain activity: 26200

TELYRFTLAQSEQPGMYPLDLAWLDWDLVSSLWSYSLWSIQLSIYFFCPFAYF
transcriptional activation domain activity: 61400

MGLANGDALITECGGVTFGFGFFLIFVGFWIGLDQVDGVWFLTLVWLLALFFL
transcriptional activation domain activity: 53900

SNHGLIYSKPLAWEWNCIIDSIENSLVGYCMEQIFVVHVSRLLLLQWSITQIF
transcriptional activation domain activity: 56000

GDKNKRKRGDSAASEAQAGQQEAAKEVQQKKKRVRSKGKAAAPPVAQASAGAS
transcriptional activation domain activity: 45300

FLVCLLTMEFILHYMYVVAIQGAKAWHGDTPLELSMIGFWNLIVVWLKLLLPW
transcriptional activation domain activity: 18200

YILAVGLILRLISYLSRAKVRLMYHWSELWRNLLSLIRFLNTYSADLLSSSTP
transcriptional activation domain activity: 66700

SASSKNGDKPKTVRKKGGEPEVSKESTPKPRTTARNRKGAKQEEAKNKTITGR
transcriptional activation domain activity: 41300

MTCFVCNPFLLCAKVFVFFSVSWWVVLSSLFWGCFLMYVFLLFPIKMFLRFCS
transcriptional activation domain activity: 61000

DSDSEEEEEGWQLSPHDVDKVRQMLEPDEVSLQRALQTTPAMRIGMIIWLVIT
transcriptional activation domain activity: 53000

DPPKRGRGRPKGSKNKKSTGVAAAAPAPAAGPSTGEKRKRGRPPKPKPEGEAG
transcriptional activation domain activity: 43800

ALCSIAGLACFILFCFLRVRWPAMYAPRLNMKKHAPQPLPNSFLGWIVPVLRT
transcriptional activation domain activity: 67400

KRREKRKKRKQRDQGRKKTKKDGVGEPSNEGGEDDNGESGKDDDDQGKESDKD
transcriptional activation domain activity: 29600

DRPRDRDSSRSRRDVSSSRRDRDGEDKESAGDRRDDRKPARDDRRTREDHRRE
transcriptional activation domain activity: 28100

AEGADAEGEGEEGEKEQEQEKQDGEKDGSEKETGNGQDGKKSEASLSVLNRLL
transcriptional activation domain activity: 29400

GAAPPPPPPPPARGGGAAPPPPPPPPPARGGAVPPPPPPPPPSGGGPPPPPPP
transcriptional activation domain activity: 33000

ISSISSIFPIFFPYFPSIYLIFFFIFFLPFFPSLPILLFLLFLLFLLFTLPLC
transcriptional activation domain activity: 43700

HLGFRYWLLSATEIVNTIFLPSVIAYLYTVYIRFLLTYWLSYAIIAGSFMILF
transcriptional activation domain activity: 53000

RMVYSIRLVFHLYAELLLDRAFFLEWFLSFFAECSLDVLPLAFPIATALWDDL
transcriptional activation domain activity: 64600

MLLSSLLCYFLNFSSSSHSVGGWFILPYGNRLLHVAFFPSLLLFRLFFFLWLA
transcriptional activation domain activity: 52600

IVIPGGRPGSVGGGGWFGGSSVFLEGLEGLEDGVMFGNAWEFDLLDLEWLFPF
transcriptional activation domain activity: 121000

ESGWIYVSVTTFFTSIALLGVMIACMVLRTHLFIWTVFSPKYLYSMAWSLGQH
transcriptional activation domain activity: 55900

MPTLLVSLCSFFPWPLFLSFLFLVFHTFASLVIVQKSHFILSYILIMHLSFFA
transcriptional activation domain activity: 46300

MLGKGRIMEYLLTFVWGFGVHILIFYLSCTGVIMGFLLIYTYSTFCFCFHHYV
transcriptional activation domain activity: 67600

AKANGAAKAAAVKPKDDSSDSSDSDSESDEEKAPAKAKEAKKAEVCTCCLSTV
transcriptional activation domain activity: 17500

RAAVSAPVVPTKAAVAPEEPPVKRKRGRPRLTSPRYRPKAAPAKAPAPTPKVV
transcriptional activation domain activity: 50000

MIYACGLICFYFFFFFLYFFPFCISFHIFLFSFLYPSCSFSFLQHCQVGTGVC
transcriptional activation domain activity: 48900

IFFVLPVFFFFHPPPFVFLPPSSFLPFLLLLLLLPLVLFISPPFSPSVAFYFT
transcriptional activation domain activity: 54100

FLYLLSRYLGLAVHITNTVFAILVGHYQVIPVHLCRIGLVYQGAVLFVMLGIL
transcriptional activation domain activity: 46900

QQLGLWIFTWCACNFFLLFFVLKHSIHQKDINILIANVLDIWGLIDPQQILVK
transcriptional activation domain activity: 61600

ETCGRCRGQGVVIQKAQLAPGIFQQMQMQCDQCGGQGTQIKHRCKVCGGARVV
transcriptional activation domain activity: 52100

KARQDKEPAMTQKDLATKINEKPSVINDYESGRAIPNQQVLGKLERALGVKLR
transcriptional activation domain activity: 40000

MRLEVFCPLANATSHAYLIFCIMHCLYFIRHFFCCRSLSTFYSSRLLLLFHFI
transcriptional activation domain activity: 80900

AAEDGKKGDKAEVGKRGDKAEVKKVKKVDGEEAGGEKVVVEKKAGAEQKAVKA
transcriptional activation domain activity: 17500

MPLVRRLGAGGDRGAGTVRVRVATSSHTPHHLKVVVLSKVPFLLPDIVVDRMQ
transcriptional activation domain activity: 12900

EVMKIMPVQKQTRAGQRTRFKAFVVIGDSEGHVGLGVKCAKEVATAIRGAIIL
transcriptional activation domain activity: 56900

MFKGSFFFSLTGFLFSLLFLFFYPLPCWGRDHFFCWGLECLFSLFLSWVLFTV
transcriptional activation domain activity: 41100

KFSLGGALYLLTRYCVLLQLIFDVTYEMQPPWTLNNVVWVANISDLVSGISIH
transcriptional activation domain activity: 34400

KGKQRSEGGGGNRKGGRPPRRIDEDAADSSSNDAGAEGGAKGSEPTKAAKAAS
transcriptional activation domain activity: 33400

SILLMQHNLYHFIHFFKKIRQVIEKGEYPSFKQELIQNLGQTGWWKFLNAKSL
transcriptional activation domain activity: 59500

MFTWNRMKVLTVHAPCRTGGLARLFYNFCIKHPAMNIAWWIDEILFPLYHLAR
transcriptional activation domain activity: 53100

MIIASLVPGGGIGFFYFVFWSLLWLRLFLAFLSIMGSFLCLFTCYMPSFLFFS
transcriptional activation domain activity: 33400

RKDKSKDTKERDVSKRQRGSSRNKGTKAKGTQTKQNEDEEDIVKTRKSKAKDK
transcriptional activation domain activity: 15200

SCDNIDNAEDKCSYALEYCMDATPGLLNYIQLYYCSSVKPFVFIVLCLWLLFL
transcriptional activation domain activity: 36000

MGLWARFICFVIPLFFHYFPLFSFSFLLNIFPHYIYFFPTFYKSGPLFLCFFM
transcriptional activation domain activity: 50500

PAAEEVAAAPAHEEPALPKHEELEIEEADEPVHRAAPAERATAAPAAAPVKAP
transcriptional activation domain activity: 29700

LARFACLTCDHNWLEDLIFGATDAIEEAFFANDITCLVFWLYNTTLWLHLMQC
transcriptional activation domain activity: 51400

SLVLQTVFLYMVERVDICIDYLKVHRRFREAEVYLLRFQQCMTRAMTLIKMYF
transcriptional activation domain activity: 75700

YTKTIATRNVANQTRLGKVRKSSVIVIAGNGHGRLGVGMAKSIEAPVATMAAT
transcriptional activation domain activity: 56400

EIKGDLTMTNLVTNFGFSIRWTHNLFEHLSIDWVGRVITIYEDKICLWNHLRF
transcriptional activation domain activity: 43500

MDFNGVVFCPVYISLLPLFFYPYNIYHFNDSLMRPNEISVAVYLLLILLNFQD
transcriptional activation domain activity: 51000

ICISILLIPGDLVTVFSRIGRSEAANIAFSIVLMPSMWSGYFWISLCYLSFWT
transcriptional activation domain activity: 52700

DISKLAIETFYFFFLFLLSFLFSFLFFSFLFLIFFNFLYSSFFLSFFLSFFLF
transcriptional activation domain activity: 33900

VDDSDDDGDEEGGKNEESITKKGVRLLDYACGTGLVSRVSHIPSIAGASSRSL
transcriptional activation domain activity: 46600

LIGCCVVYSLLSSFLLIFQCIPVSLAWNRWDGEHHGHCTNLVPLTWITALLNV
transcriptional activation domain activity: 58900

DGVTNTPVELGVAKEGGNLEVVNSRTALVVSKHWILLIGLLGRYGMRKDKGVL
transcriptional activation domain activity: 49400

GAGVGGATDGAEGKKGDGGGGKEKEREEGERRKKKKKRNKEGRDGGGGGTGGD
transcriptional activation domain activity: 43300

MSRPSGCRSATSTGRATCSGCRRSSSPARPPCASRRARCSCGCVCASPTSTRR
transcriptional activation domain activity: 12100

GRSESQSANNNGNNARGGKTGGGEAAAGGKTSASRGPRGGRGAKNKGSGGSKG
transcriptional activation domain activity: 28700

ERDEEEDEDEEEEDEGKRRKRRGARSTAAISKRETGKAKDETREDPESRKKRG
transcriptional activation domain activity: 23600

LSAIVWQIVVDYFYDFVYLTSGLLWPPPTDFIMHTEHFYAGQLIVLLFFYTSL
transcriptional activation domain activity: 69200

VPLPELEPKVVLELRAVVVQVKQLDEEPPLDLEQRVELVPTGQLEQRAAPVLR
transcriptional activation domain activity: 35000

EKSQNNSNVINETIDHTDIHAHHADAHDDSFIESEEWLSKFIMDSQIDNDLKL
transcriptional activation domain activity: 139000
